Laboratory results reported in patent publication US20040142862A1, “Methods and compositions for modulating agonist-induced downregulation of G protein-coupled receptors” (The Regents of the University of California, priority 2002, published 2004).
“Also recorded” adds a separate entry of the source.

Key:
[1] = target: T1, MOR (Mus musculus, UniProt P42866); assay: Agonist-induced downregulation of MOR, radioligand binding; assay type: cell-based; details: 10 μM, 3 hours
Excerpt: (§1) Agonist-induced downregulation can be determined by any of a variety of methods, including those described herein. For example, cell surface receptors can be measured and/or receptor proteolysis or localization in lysozomes can be determined. Alternatively, receptor downregulation can be determined indirectly by measuring desensitization of receptors after activation with an agonist. Desensitization can be determined, for example, by measuring a biological effect that is mediated by the receptor. (See FIG. 1 for examples of each of these methods.) Generally, it will be most convenient to measure cell surface receptors using a radio- or immunoassay. An exemplary radioligand binding assay useful for determining agonist-induced downregulation is described in Example 1. (See FIG. 1A and Reference 16.) Briefly, cells expressing the cell surface receptor of interest are incubated with a suitable agonist under conditions designed to provide a saturating concentration of agonist over the incubation period. After agonist treatment, the cells are recovered and assayed for radioligand binding. […]
(§2) (See 18 and 45 for the DOR and MOR expression constructs, respectively.) Cells were then chilled on ice, washed extensively and total opioid radioligand binding sites were determined for each cell line (16). […]

[2] = tested on: D MOR; assay: Agonist-induced downregulation of D MOR, radioligand binding; assay type: cell-based; details: 10 μM, 3 hours
Excerpt: as §1, §2

[3] = target: T1, MOR; assay: Colocalization of MOR with LAMP1 and LAMP2; assay type: cell-based; details: 5 μM, 90 min
[4] = target: T1, MOR; assay: Membrane adenylyl cyclase assay, MOR cells; assay type: cell-based
Procedure: (§3) 21. Membrane adenylyl cyclase assays were performed as previously described (9).

[5] = tested on: D MOR; assay: Membrane adenylyl cyclase assay, D MOR cells; assay type: cell-based
Procedure: as §3

[6] = target: epitope (FLAG)-tagged delta opioid receptor (DOR-1), full length, stably expressed in HEK293 cells (UniProt P32300); assay: co-immunoprecipitation: receptor immunoprecipitated, blotted for GASP1
[7] = target: T2, B2AR-Ala (Homo sapiens, UniProt P07550); assay: Co-immunoprecipitation with B2AR-Ala; assay type: binding; details: cells stably expressing B2AR-Ala and GFP-cGASP1
T2 construct: expressed in transfected cells
Excerpt: The ability of GASP1 to bind to the B2AR tail in vitro was initially surprising, since the B2AR recycles efficiently after agonist-induced endocytosis and is relatively resistant to proteolysis in HEK293 cells (35). It has been shown previously that efficient recycling of the B2AR in these cells requires the actin cytoskeleton and a distinct set of protein interactions with the distal tip of the cytoplasmic tail (7). Adding a single alanine residue to the carboxyl terminus of the B2AR specifically disrupts this “recycling protein” interaction, creating a mutant B2AR (B2AR-Ala) that is sorted to lysosomes after agonist-induced endocytosis (7) (and see this study FIG. 5C) much like DOR (FIG. 1B). […] Consistent with this, GFP-cGASP1 co-immunoprecipited with B2AR-Ala (FIG. 5B) (30). Furthermore, overexpression of GFP-cGASP1 inhibited degradation of internalized B2AR-Ala (FIG. 5C), providing evidence for a functional role of the GASP1 protein interaction in lysosomal sorting of a non-opioid GPCR.
30. Assay for coimmunoprecipitation of cGASP1 with opioid receptors: Cells were grown to confluency, washed 2 times with PBS and lysed in 0.1% Triton X-100, 150 mM NaCl, 25 mM KCl, 10 mM Tris-HCl pH 7.4 containing 1 μM leupeptin, 1 μM pepstatin A, 1 μM aprotinin, 2.5 μM Pefabloc SC, and cell debris was removed by centrifugation at 10,000×g for 10 minutes at 4° C. […]

[8] = target: T3, endogenous GASP1 binding to DOR (Mus musculus, UniProt P32300); assay: Competition with endogenous GASP1 for DOR binding in cells (co-immunoprecipitation); assay type: cell-based; details: overexpressed approximately 40 fold over endogenous GASP1
T3 construct: co-immunoprecipitated specifically with full length DOR but not with MOR expressed at similar levels; expressed in transfected cells; host or cells: HEK293 stably expressing DOR (GASP1 endogenous)
Procedure: 30. Assay for coimmunoprecipitation of cGASP1 with opioid receptors: Cells were grown to confluency, washed 2 times with PBS and lysed in 0.1% Triton X-100, 150 mM NaCl, 25 mM KCl, 10 mM Tris-HCl pH 7.4 containing 1 μM leupeptin, 1 μM pepstatin A, 1 μM aprotinin, 2.5 μM Pefabloc SC, and cell debris was removed by centrifugation at 10,000×g for 10 minutes at 4° C. An aliquot of lysate was removed for GASP1 control blot. Lysate was incubated with M2 affinity resin (Sigma) overnight. Pellets were extensively washed and incubated with PNGase (NEB) for 2 hours at 37° C. to degycosylate receptor protein. Samples were eluted in SDS sample buffer. For co-immunoprecipitation with endogenous GASP1, one fourth of eluate was separated by SDS-PAGE on a 12% gel (receptor blot), three quarters on a 7% gel (GASP1 blot). For co-immunoprecipitation with cGASP1 eluate was run on a 12% gel that was later cut and blotted separately for cGASP1 and receptor. Proteins were transferred to nitrocellulose. GASP1 blots were incubated for 2 hours with rabbit anti-GASP1 (1:4000). cGASP1 blots were incubated with rabbit anti-GFP antibodies for 2 hours (1:200) (Clonetech). Both were followed by 1 hour with horseradish peroxidase (HRP)-conjugated anti-rabbit antibody (NEB) (1:3000), and visualized with ECL plus (Amersham). […]

[9] = target: T4, DOR (Mus musculus, UniProt P32300); assay: Biotin protection-degradation assay, endocytosed DOR; assay type: cell-based; details: cells overexpressing cGASP1 vs DOR alone, agonist 3 hours
T4 construct: co-immunoprecipitated specifically with full length DOR but not with MOR expressed at similar levels; expressed in transfected cells
Procedure: (§4) 17. Biotin protection-degradation assay for proteolysis of surface-biotinylated receptors following endocytosis: Cells were grown to 80% confluency washed 2 times with cold phosphate buffered saline (PBS) then incubated in 3 μg/ml cleavable biotin (Pierce) in PBS at 4° C. for 30 minutes with gentle agitation. Cells were washed 2 times with Tris buffered saline and placed back into medium for treatment. Cells labeled “100% biotinylated” were left on ice in PBS. Cells labeled “100% stripped” were also left on ice in PBS then stripped as described below. Cells were treated with 5 μM agonist for 30 minutes or 3 hours, washed 2 times with cold PBS and the remaining cell surface biotinylated receptors were stripped in 50 mM glutathione, 0.3 M NaCl, 75 mM NaOH, 1% fetal bovine serum at 4° C. for 30 minutes. Glutathione was quenched with a 20 minute wash of PBS with 50 mM iodoacetamide, 1% bovine serum albumin. Cells were extracted in 0.1% Triton X-100, 150 mM NaCl, 25 mM KCl, 10 mM Tris-HCl pH 7.4 containing 1 μM leupeptin, 1 μM pepstatin A, 1 μM aprotinin, 2.5 μM Pefabloc SC, and cell debris was removed by centrifugation at 10,000×g for 10 minutes at 4° C. Receptors were immunoprecipitated using M2 antibody (Sigma), rabbit anti mouse linker (Jackson Immunoresearch) and protein A sepharose (Pharmacia) overnight. […]

[10] = target: epidermal growth factor (EGF) receptor (Homo sapiens, UniProt P00533); assay: EGFR assay, ligand-induced downregulation of EGF receptor; assay type: cell-based; details: EGF 30 minutes or 3 hours
Procedure: 32. EGFR assay: Cells expressing only endogenous GASP1 and cells overexpressing GFP-cGASP1 (>40×) were grown to 80% confluency and treated with 5 μM EGF in DMEM for the indicated times or left untreated. Cells were washed with PBS, EGF receptor was immunoprecipitated with Rabbit anti EGFR-affinity resin (Santa Cruz Biotechnology), separated by SDS page and immunoblotted with goat anti-EGFR antibodies (Santa Cruz Biotechnology), followed by HRP-conjugated anti-goat secondary (Jackson Immunoresearch) and development with ECL reagents (Amersham).

[11] = target: T5, cytoplasmic tail of DOR (Mus musculus, UniProt P32300); assay: GST affinity chromatography, binding to DOR cytoplasmic tail; details: in vitro
T5 construct: GST; made in house
T5 sequence (P32300 312-371): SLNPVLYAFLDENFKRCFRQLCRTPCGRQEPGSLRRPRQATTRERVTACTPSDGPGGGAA
Procedure: Sequence homology to a non-mammalian protein was observed between the carboxyl-terminal regions of GASP1 and Vac8p, a yeast protein involved in late endocytic trafficking (26).
24. Affinity chromatography was carried out as previously described (25).

[12] = target: T4, DOR; assay: Agonist-induced downregulation of DOR, radioligand binding; assay type: cell-based; details: 5 μM DADLE 3 hours
[13] = target: T2, B2AR-Ala; assay: Biotin protection-degradation assay, endocytosed B2AR-Ala; assay type: cell-based; details: cells overexpressing cGASP1 vs B2AR-Ala alone, isoproterenol
Procedure: as §4

[14] = agonist 3 hours, washout, 10 μM naloxone 30 minutes

CC(C)C[C@@H](NC(=O)[C@H](Cc1ccccc1)NC(=O)CNC(=O)[C@@H](C)NC(=O)[C@@H](N)Cc1ccc(O)cc1)C(=O)O [DADLE, Tyr-D-Ala-Gly-Phe-D-Leu]
agonist-induced downregulation of MOR (total opioid radioligand binding sites) [1]: not substantially downregulated | agonist-induced downregulation of D MOR (total opioid radioligand binding sites) [2]: significant downregulation

C[C@@H](NC(=O)[C@@H](N)Cc1ccc(O)cc1)C(=O)NCC(=O)N(C)[C@@H](Cc1ccccc1)C(=O)NCCO [DAMGO]
colocalization of MOR with LAMP after agonist [3]: not colocalized with LAMP | desensitization of MOR ([4]; 5 μM, 10 minute exposure): Rapid desensitization | resensitization of MOR [4, 14]: recovered their ability to mediate agonist-dependent inhibition of adenylyl cyclase | desensitization of D MOR ([5]; 5 μM, 10 minute exposure): Rapid desensitization | resensitization of D MOR [5, 14]: neither DOR nor D MOR resensitized significantly

endogenous GASP1 of HEK293 cells
percent of endogenous GASP1 immunoprecipitated with DOR [6]: < 1% | percent of total endogenous GASP1 coimmunoprecipitated with DOR [6]: < 1%

B1: GFP-cGASP1: GFP-tagged version of cGASP1 stably overexpressed in HEK293 cells (protein)
chain: SETEEETIFGSWFWDGKEVSEEAGPCCVSKPEDDEEMIVESWFWSRDKAIKETGTVATCESKPENEEGAIVGSWFEAEDEVDNRTDNGSNCGSRTLADEDEAIVGSWFWAGDEAHFESNPSPVFRAICRSTCSVEQEPDPSRRPQSWEEVTVQFKPGPWGRVGFPSISPFRFPKEAASLFCEMFGGKPRNMVLSPEGEDQESLLQPDQPSPEFPFQYDPSYRSVQEIREHLRAKESTEPESSSCNCIQCELKIGSEEFEELLLLMEKIRDPFIHEISKIAMGMRSASQFTRDFIRDSGVVSLIETLLNYPSSRVRTSFLENMIRMAPPYPNLNIIQTYICKVCEETLAYSVDSPEQLSGIRMIRHLTTTTDYHTLVANYMSGFLSLLATGNAKTRFHVLKMLLNLSENLFMTKELLSAEAVSEFIGLFNREETNDNIQIVLAIFENIGNNIKKETVFSDDDFNIEPLISAFHKVEKFAKELQGKTDNQNDPEGDQEN
modifications: left off: large carriers; small tags and cut ends
notes: GFP-tagged version of cGASP1 stably overexpressed in HEK293 cells
binding to B2AR-Ala in vivo (co-immunoprecipitation) [7]: binds in vivo | competition with endogenous GASP1 for binding to DOR in vivo [8]: substantially reduced the amount of endogenous GASP1 recovered in DOR immunoprecipitates; also recorded: competes with endogenous GASP1 for binding to DOR in vivo | stability of endocytosed DOR (post-endocytic proteolysis) [9]: significantly more stable | effect on downregulation of the EGF receptor [10]: unaffected

B2: cGASP1: carboxyl-terminal fragment of the GASP1 protein, corresponding to the C-terminal 497 residues of GASP1 (protein)
chain: SETEEETIFGSWFWDGKEVSEEAGPCCVSKPEDDEEMIVESWFWSRDKAIKETGTVATCESKPENEEGAIVGSWFEAEDEVDNRTDNGSNCGSRTLADEDEAIVGSWFWAGDEAHFESNPSPVFRAICRSTCSVEQEPDPSRRPQSWEEVTVQFKPGPWGRVGFPSISPFRFPKEAASLFCEMFGGKPRNMVLSPEGEDQESLLQPDQPSPEFPFQYDPSYRSVQEIREHLRAKESTEPESSSCNCIQCELKIGSEEFEELLLLMEKIRDPFIHEISKIAMGMRSASQFTRDFIRDSGVVSLIETLLNYPSSRVRTSFLENMIRMAPPYPNLNIIQTYICKVCEETLAYSVDSPEQLSGIRMIRHLTTTTDYHTLVANYMSGFLSLLATGNAKTRFHVLKMLLNLSENLFMTKELLSAEAVSEFIGLFNREETNDNIQIVLAIFENIGNNIKKETVFSDDDFNIEPLISAFHKVEKFAKELQGKTDNQNDPEGDQEN
input recovered on washed GST-DOR [11]: 3-5% | effect on agonist-induced downregulation of DOR ([12]; cGASP1 overexpressed 30 fold over endogenous GASP1): less significantly | effect on agonist-induced downregulation of DOR ([12]; cGASP1 overexpressed 40-fold over endogenous GASP1): significantly inhibited | stability of endocytosed B2AR-Ala (post-endocytic proteolysis) [13]: significantly more stable
